Data as given in patent publication US20060057669A1, “Inactive transcription factor tif-ia and uses thereof” (priority 2002, published 2006).

Tests used:
Type in all cases: biochemical
[1] = test system: Pol I transcription; test: Complementation of Pol I transcription in nuclear extracts from rapamycin-treated FM3A cells
Protocol: (B) Complementation of transcriptional activity in nuclear extracts from rapamycin-treated cells. Transcription reactions contained nuclear extracts (30 μg) from untreated (NE) or rapamycin-treated (NERapa) FM3A cells. In lanes 3-7, fractions containing partially purified Pol I transcription factors were added to NERapa-containing reactions.
(C) TIF-IA activates transcription in nuclear extracts form rapamycin-treated cells. Reactions were complemented with either 1 μl (lanes 2 and 5) of cellular TIF-IA (PL-650 fraction) or 20 ng (lanes 3 and 6) of immunopurified recombinant TIF-IA that has been expressed in SF9 cells.
(A) mTOR rescues transcription in vitro. Pol I transcription was assayed in nuclear extracts from rapamycin-treated FM3A cells. Reactions were supplemented with 50 ng TIF-IA (lane 1) or 10 ng, 20 ng and 30 ng of HA-mTOR (lanes 3-5).
(B) S6K1 activates Pol I transcription in extracts from rapamycin-treated cells. NERapa was supplemented with 50 ng TIF-IA (lane 1) or 100, 150 and 200 ng of GST-S6K1 (lanes 3-5) or GST-S6K1dd (lanes 6-8).
(§1) Nuclear extracts were prepared from exponentially growing (8×10^5 cells/ml), density-arrested or PD98059-treated (CN Bioscience, Bad Soden, Germany) 40 μM, 0.5 hr) or rapamycin-treated FM3A cells (ATCC, Manassas, USA). 25 μl assays contained 50 ng of template DNA (pMr600/EcoRI), 30 μg nuclear extract proteins and 12 mM Hepes-KOH, [pH8.0], 0.1 mM EDTA, 5 mM MgCl2, 80 mM KCl, 10 mM creatine phosphate, 12% (v/v) glycerol, 0.66 mM each of ATP, GTP and CTP, 0.01 mM UTP and 0.5 μCi [α-^32P]UTP (5000 Ci/mmol). After incubation for 60 min at 30° C., RNA was extracted and analyzed on non-denaturing 5% polyacrylamide gels
mTOR and S6K1 were purified from HEK293T cells overexpressing HA-tagged mTOR or GST/myc-tagged S6K1, respectively. 5×10^6 cells were lysed in 0.8 ml IP buffer, centrifuged at 10,000×g for 20 min, and the supernatants were incubated for 4 hr at 4° C. with either 15 μg anti-HA antibodies bound to 20 μl protein G-agarose (for HA-mTOR) or 20 μl packed GST-glutathione beads (for GST-myc-S6K1). […]

[2] = target: T1, RSK2 (Mus musculus, UniProt P18654, A376E/A378E/F387I/G384D/H379Q/INS385D/L381M/N377E/Q380E/S369E/S386Y/T365E); test: In vitro kinase assay with immunopurified RSK2
T1 construct: made in house; host or cells: HEK293T (kinase, immunopurified via HA); E. coli BL21(DE3) (GST substrate)
T1 sequence (P18654 with tags, fused parts or gaps with the stated changes): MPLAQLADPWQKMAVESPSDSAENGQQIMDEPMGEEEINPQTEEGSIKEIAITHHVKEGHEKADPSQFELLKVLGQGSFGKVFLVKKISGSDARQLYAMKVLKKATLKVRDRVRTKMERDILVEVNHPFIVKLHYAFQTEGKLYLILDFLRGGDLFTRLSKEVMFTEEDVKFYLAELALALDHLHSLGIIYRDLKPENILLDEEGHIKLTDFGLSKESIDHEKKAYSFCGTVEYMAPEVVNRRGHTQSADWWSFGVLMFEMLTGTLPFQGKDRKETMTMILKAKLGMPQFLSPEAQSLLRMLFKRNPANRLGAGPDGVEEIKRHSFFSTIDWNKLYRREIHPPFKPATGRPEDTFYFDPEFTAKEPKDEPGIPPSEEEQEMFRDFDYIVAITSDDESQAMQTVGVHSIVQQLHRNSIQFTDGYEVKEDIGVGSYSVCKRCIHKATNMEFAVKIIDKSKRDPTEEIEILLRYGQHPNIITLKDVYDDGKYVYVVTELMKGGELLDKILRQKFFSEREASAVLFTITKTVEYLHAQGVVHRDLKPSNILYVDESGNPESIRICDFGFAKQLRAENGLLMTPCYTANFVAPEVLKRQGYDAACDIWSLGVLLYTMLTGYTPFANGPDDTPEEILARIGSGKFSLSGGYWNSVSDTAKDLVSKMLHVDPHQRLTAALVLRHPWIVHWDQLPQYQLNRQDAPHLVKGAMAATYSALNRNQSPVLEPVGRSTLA
Protocol: (A) Tryptic peptide maps of recombinant TIF-IA phosphorylated by RSK2 in vitro. GST/TIF-IA409-651 was phosphorylated with HA-RSK-CA in vitro and the phosphopeptide pattern was compared with that of wild-type TIF-IA and TIF-IA1-632 labeled in vivo.
HA-tagged ERK1/2 or RSK2-CA was overexpressed in HEK293T cells, immunopurified and immobilized to protein G agarose. After stringent washing, the beads were suspended in 20 μl of 1.5× kinase assay buffer (75 mM Tris-HCl [pH 8.0], 15 mM MgCl2, 1.5 mM DTT, 5% glycerol) and assayed for activity. 30 μl reactions contained 100 μM ATP, 0.2 μCi of […] (5000 Ci/mmol), 0.5-1 μg S6 peptide (RRSSLRA) or GST/TIF-IA (Yuan et al. EMBO Reports 3 (2002) 1082-1087) and 10 fmoles RSK. After incubation for 30 min at 30° C., 5 μl of the supernatants were spotted onto phosphocellulose paper (Whatman p81), washed with 150 mM orthophosphoric acid and quantified with a PhosphorImager (Molecular Dynamics, Inc.). Alternatively, labeled GST/TIF-IA was subjected to SDS-PAGE, blotted onto nitrocellulose, digested with trypsin and analyzed by two-dimensional phosphopeptide mapping.
Phosphoamino acid analysis has established that TIF-IA is exclusively phosphorylated on serine residues (data not shown). The C-terminal tryptic peptide of TIF-IA contains three S—P sites (FIG. 4B, upper panel), a known target motif for MAPKs. […]

[3] = test system: Pol I transcription; test: Complementation of Pol I transcription in nuclear extracts from PD98059-treated FM3A cells; conditions: standard transcription system containing ATP and GTP
Protocol: (C) TIF-IA, but not UBF, rescues Pol I transcription in extracts from PD98059-treated cells. Nuclear extracts from untreated or PD98059-treated FM3A cells were supplemented with 20 and 40 ng of purified TIF-IA and/or UBF (10 ng in lanes 7 and 9, 50 ng in lanes 3, 8 and 10).
(D) TIF-IA activates transcription in extracts from PD98059-treated cells in the presence of AMP-PNP and GMP-PNP. Nuclear extracts from PD98059-treated FM3A cells were supplemented with 40 ng of purified TIF-IA and assayed in the standard transcription system containing ATP and GTP (ATP, lanes 1, 2) or AMP-PNP and GMP-PNP (AMP-PNP, lanes 3, 4)
(D) ERK/RSK-dependent phosphorylation activates Pol I transcription in vitro. Nuclear extracts from PD98059-treated FM3A cells were supplemented with 40 ng of TIF-IA, 10 ng of HA-RSK, or 10 ng of HA-ERK as indicated, and transcriptional activity was assayed in the standard transcription system containing ATP and GTP (lanes 4-8) or AMP-PNP and GMP-PNP (lanes 9-13).
as §1
To test whether both TIF-IA and UBF, or TIF-IA alone, were targeted by ERK-mediated phosphorylation, nuclear extracts from untreated and PD98059-treated cells were assayed for rDNA transcription in the absence and presence of exogenous TIF-IA or UBF (FIG. 2C). If both UBF and TIF-IA were inactivated by PD98059, rescue of Pol I transcriptional activity would require both factors, whereas TIF-IA alone would be sufficient if it was the only factor that is inactivated by inhibition of the ERK pathway. […]

Row | Molecule | phosphorylation by RSK2 in vitro [2] | further results
1 | S6K1: GST/myc-tagged S6 kinase purified from HEK293T cells |  | rescue of Pol I transcription in extracts from rapamycin-treated cells [1]: activated Pol I transcription to an extent that compared to that of exogenous TIF-IA
2 | GST/TIF-IA409-651: GST fusion of the C-terminal part of TIF-IA containing aa 410-651 (protein, UniProt Q9NYV6 410-651, looked up, fragment, GST fusion) FLARAKFIPLITVKSCLDLLVNWLHIYLNNQDSGTKAFCDVALHGPFYSACQAVFYTFVFRHKQLLSGNLKEGLQYLQSLNFERIVMSQLNPLKICLPSVVNFFAAITNKYQLVFCYTIIERNNRQMLPVIRSTAGGDSVQICTNPLDTFFPFDPCVLKRSKKFIDPIYQVWEDMSAEELQEFKKPMKKDIVEDEDDDFLKGEVPQNDTVIGITPSSFDTHFRSPSSSVGSPPVLYMQPSPL | efficiently phosphorylated | 
3 | UBF: basal Pol I transcription initiation factor, FLAG-tagged UBF1 purified from Sf9 cells (protein, UniProt P17480 1-764, looked up, UBF1 FLAG tag, basal Pol I transcription initiation factor, FLAG-tagged UBF1 purified from Sf9 cells) Nucleolar transcription …: MNGEADCPTDLEMAAPKGQDRWSQEDMLTLLECMKNNLPSNDSSKFKTTESHMDWEKVAFKDFSGDMCKLKWVEISNEVRKFRTLTELILDAQEHVKNPYKGKKLKKHPDFPKKPLTPYFRFFMEKRAKYAKLHPEMSNLDLTKILSKKYKELPEKKKMKYIQDFQREKQEFERNLARFREDHPDLIQNAKKSDIPEKPKTPQQLWYTHEKKVYLKVRPDATTKEVKDSLGKQWSQLSDKKRLKWIHKALEQRKEYEEIMRDYIQKHPELNISEEGITKSTLTKAERQLKDKFDGRPTKPPPNSYSLYCAELMANMKDVPSTERMVLCSQQWKLLSQKEKDAYHKKCDQKKKDYEVELLRFLESLPEEEQQRVLGEEKMLNINKKQATSPASKKPAQEGGKGGSEKPKRPVSAMFIFSEEKRRQLQEERPELSESELTRLLARMWNDLSEKKKAKYKAREAALKAQSERKPGGEREERGKLPESPKRAEEIWQQSVIGDYLARFKNDRVKALKAMEMTWNNMEKKEKLMWIKKAAEDQKRYERELSEMRAPPAATNSSKKMKFQGEPKKPPMNGYQKFSQELLSNGELNHLPLKERMVEIGSRWQRISQSQKEHYKKLAEEQQKQYKVHLDLWVKSLSPQDRAAYKEYISNKRKSMTKLRGPNPKSSRTTLQSKSESEEDDEEDEDDEDEDEEEEDDENGDSSEDGGDSSESSSEDESEDGDENEEDDEDEDDDEDDDEDEDNESEGSSSSSSSSGDSSDSDSN |  | rescue of Pol I transcription in extracts from PD98059-treated cells [3]: had no effect
4 | GST/TIF-IA409-632: GST fusion of a TIF-IA C-terminal fragment lacking amino acids 633-651 (protein, UniProt Q9NYV6 409-632, looked up, fragment, GST fusion) SFLARAKFIPLITVKSCLDLLVNWLHIYLNNQDSGTKAFCDVALHGPFYSACQAVFYTFVFRHKQLLSGNLKEGLQYLQSLNFERIVMSQLNPLKICLPSVVNFFAAITNKYQLVFCYTIIERNNRQMLPVIRSTAGGDSVQICTNPLDTFFPFDPCVLKRSKKFIDPIYQVWEDMSAEELQEFKKPMKKDIVEDEDDDFLKGEVPQNDTVIGITPSSFDTHFR | not phosphorylated | 
